From article PMC3401101
One block for each molecule: values may come before it.

How the values were obtained:
DNA topoisomerase IIIα [1] = target: T1, DNA topoisomerase IIIα (UniProt Q13472)
T1 sequence: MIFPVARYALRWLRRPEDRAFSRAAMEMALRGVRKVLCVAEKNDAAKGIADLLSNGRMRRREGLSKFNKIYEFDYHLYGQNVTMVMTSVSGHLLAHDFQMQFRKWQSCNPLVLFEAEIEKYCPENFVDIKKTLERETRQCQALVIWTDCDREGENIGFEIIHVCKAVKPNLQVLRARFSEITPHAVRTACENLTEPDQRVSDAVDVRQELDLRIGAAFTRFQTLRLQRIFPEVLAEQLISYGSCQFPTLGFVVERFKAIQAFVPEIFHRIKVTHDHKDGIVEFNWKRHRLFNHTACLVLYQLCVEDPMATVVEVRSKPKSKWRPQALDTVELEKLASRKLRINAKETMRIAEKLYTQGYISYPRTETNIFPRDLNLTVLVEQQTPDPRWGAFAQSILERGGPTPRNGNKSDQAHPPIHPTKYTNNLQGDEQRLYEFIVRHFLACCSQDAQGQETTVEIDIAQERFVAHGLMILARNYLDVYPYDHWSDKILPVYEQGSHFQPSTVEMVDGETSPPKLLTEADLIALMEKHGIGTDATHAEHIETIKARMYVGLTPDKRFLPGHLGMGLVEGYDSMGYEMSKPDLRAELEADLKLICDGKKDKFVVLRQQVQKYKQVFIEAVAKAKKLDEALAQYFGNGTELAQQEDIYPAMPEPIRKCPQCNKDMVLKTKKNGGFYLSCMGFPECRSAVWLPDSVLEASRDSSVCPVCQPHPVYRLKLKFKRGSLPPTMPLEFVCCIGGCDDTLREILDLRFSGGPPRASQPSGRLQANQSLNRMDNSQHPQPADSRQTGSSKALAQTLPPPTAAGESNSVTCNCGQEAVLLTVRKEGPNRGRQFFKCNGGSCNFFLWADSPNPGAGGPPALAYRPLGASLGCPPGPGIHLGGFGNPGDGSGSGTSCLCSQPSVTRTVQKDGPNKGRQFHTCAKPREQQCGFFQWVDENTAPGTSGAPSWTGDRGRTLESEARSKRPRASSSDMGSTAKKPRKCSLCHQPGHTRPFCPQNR

DNA topoisomerase IIIα [2] = target: T1, DNA topoisomerase IIIα; remark: listed apart in the source

- TopoIIIα decatenase activity with BLM (33-66 nM) in the presence of RPA (100 nM), against TopoIIIα alone (DNA topoisomerase IIIα [1]): 1.5 fold
Molecule: BLM (from UniProt P54132 1-1417) (enzyme)

- TopoIIIα-mediated decatenation of single-stranded catenane with both BLM (17 nM) and RMI1 (75-150 nM) in the presence of RPA (100 nM), against TopoIIIα alone (DNA topoisomerase IIIα [2]): 30 fold
B1: RMI1 (natural protein)
chain: MNVTSIALRAETWLLAAWHVKVPPMWLEACINWIQEENNNVNLSQAQMNKQVFEQWLLTDLRDLEHPLLPDGILEIPKGELNGFYALQINSLVDVSQPAYSQIQKLRGKNTTNDLVTAEAQVTPKPWEAKPSRMLMLQLTDGIVQIQGMEYQPIPILHSDLPPGTKILIYGNISFRLGVLLLKPENVKVLGGEVDALLEEYAQEKVLARLIGEPDLVVSVIPNNSNENIPRVTDVLDPALGPSDEELLASLDENDELTANNDTSSERCFTTGSSSNTIPTRQSSFEPEFVISPRPKEEPSNLSIHVMDGELDDFSLEEALLLEETVQKEQMETKELQPLTFNRNADRSIERFSHNPNTTNNFSLTCKNGNNNWSEKNVSEQMTNEDKSFGCPSVRDQNRSIFSVHCNVPLAHDFTNKEKNLETDNKIKQTSSSDSHSLNNKILNREVVNYVQKRNSQISNENDCNLQSCSLRSSENSINLSIAMDLYSPPFVYLSVLMASKPKEVTTVKVKAFIVTLTGNLSSSGGIWSITAKVSDGTAYLDVDFVDEILTSLIGFSVPEMKQSKKDPLQYQKFLEGLQKCQRDLIDLCCLMTISFNPSLSKAMVLALQDVNMEHLENLKKRLNK
